Experiment [1] has as its target T1, properdin (human, UniProt P27918 28-469).
T1 construct: properdin (complement factor P), human; the oligomeric state of the purified protein was not measured here; also called purified properdin; source: bought: Complement Technologies (CompTech), purified; bought: TECOmedical GmbH (peptide ELISA); endogenous, normal human serum (NHS)
Nature of the experiment: ELISA; ARMS2 peptides 1, 2, 3 (each 500 nM) coated on the plate; 2 uM properdin (TECOmedical) in PBS; detected with monoclonal properdin antibody. The note with it: both partners purified.

The target of experiment [2] is T1, properdin. As to the kind of experiment: BLI; BLITZ system; His-tagged ARMS2 loaded on Ni2+ NTA biosensors in PBS with 0.1% gelatin; properdin 70 to 1800 nM; 1:1 model. The note with it: both partners purified. (In general: Biolayer interferometry detects binding as a change in optical thickness at a sensor tip.)

Consider 2 molecules from paper PMC5234120, “Age-related macular degeneration associated polymorphism rs10490924 in ARMS2 results in deficiency of a complement activator” (Journal of Neuroinflammation, 2017).

A word on the Kd: it is a measure of binding affinity in units of concentration. Low readings indicate tighter binding, high ones weaker binding.

T1 sequence (P27918 28-469): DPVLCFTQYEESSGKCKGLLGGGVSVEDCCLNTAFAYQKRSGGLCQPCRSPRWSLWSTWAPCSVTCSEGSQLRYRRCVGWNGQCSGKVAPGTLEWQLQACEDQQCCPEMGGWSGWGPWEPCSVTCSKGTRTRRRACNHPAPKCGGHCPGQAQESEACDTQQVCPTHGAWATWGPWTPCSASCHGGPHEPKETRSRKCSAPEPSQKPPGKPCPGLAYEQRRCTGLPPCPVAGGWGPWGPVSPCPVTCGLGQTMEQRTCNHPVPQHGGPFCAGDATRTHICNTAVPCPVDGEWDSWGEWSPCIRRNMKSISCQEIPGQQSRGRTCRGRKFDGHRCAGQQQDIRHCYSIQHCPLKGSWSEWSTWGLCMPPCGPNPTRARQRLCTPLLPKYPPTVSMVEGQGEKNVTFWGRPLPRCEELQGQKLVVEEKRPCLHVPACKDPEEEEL

B1: ARMS2 peptide 3 (amino acids 71 to 107) (peptide)
peptide: IHTELCLPAFFSPAGTQRRFQQPQHHLTLSIIHTAAR
notes: ARMS2, human, amino acids 71 to 107; also called C-terminal peptide 3 of ARMS2; source: peptide generated by Jerini Peptide Biotechnologies
For the molecule B1, the binding result with properdin [1] is “binds”.

B2: recombinant ARMS2 (age-related maculopathy susceptibility 2) (natural protein, human, UniProt P0C7Q2 1-107, looked up)
chain: MLRLYPGPMVTEAEGKGGPEMASLSSSVVPVSFISTLRESVLDPGVGGEGASDKQRSKLSLSHSMIPAAKIHTELCLPAFFSPAGTQRRFQQPQHHLTLSIIHTAAR
notes: ARMS2, human, codon usage optimized full length cDNA; Glycosylated in P. pastoris (17 and 15 kDa bands); also called His-tagged ARMS2; rARMS2
On to B2, for which binding in the experiment with properdin [2] was put at a Kd of 500 nM.
